Experimental data as given in US20120295811, “APTAMERS DIRECTED AGAINST THE MATRIX PROTEIN-1 OF TYPE A INFLUENZA VIRUSES AND USES […]” (published 2012).

Target: Nucleoprotein (NP) (Influenza A virus, UniProt P03466 SEQ:1-498)
Experiment: SPR; 2 uM, 22 C
Settings: tags: His tag (pET28a, Co2+ resin purification), E. coli; label: 5'-amino-C12 linker (microarray); hairpin with bulge, internal loop and lateral small hairpin

Chain of Nucleoprotein (NP) (P03466 whole entry): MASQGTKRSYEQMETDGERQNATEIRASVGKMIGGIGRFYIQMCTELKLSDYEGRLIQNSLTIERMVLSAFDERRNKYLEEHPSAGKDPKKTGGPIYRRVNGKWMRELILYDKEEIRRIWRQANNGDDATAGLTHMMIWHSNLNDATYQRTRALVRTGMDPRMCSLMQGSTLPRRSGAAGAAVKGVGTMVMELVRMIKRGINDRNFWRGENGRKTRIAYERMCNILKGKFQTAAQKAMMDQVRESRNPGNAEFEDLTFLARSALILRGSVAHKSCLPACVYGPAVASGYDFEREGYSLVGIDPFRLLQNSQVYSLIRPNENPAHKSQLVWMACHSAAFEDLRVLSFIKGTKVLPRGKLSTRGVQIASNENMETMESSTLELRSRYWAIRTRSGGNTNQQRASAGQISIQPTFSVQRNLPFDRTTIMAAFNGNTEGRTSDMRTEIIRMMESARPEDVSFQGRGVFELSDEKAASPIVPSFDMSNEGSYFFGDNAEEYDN

Row | Binder | binding result
1 | UGCCUGACCACUCAGAAUCGAGCGCAUUGGCCGGCA (ssRNA) [M1R9C1 36-mer] | no binding
2 | UGCCCUGACCAUCCUGAGGGACGCAUUGGCCGGGCA (ssRNA) [M1R9C6 36-mer] | no binding
